This note sets out measurements from article PMC12464271.

For this assay, the target named is HPV-16 L1 capsid protein lacking the first twenty-nine N-terminal amino acids after the start codon (Human papillomavirus type 16) (UniProt P03101). The assay can be described thus: SEC + other: negative-stain TEM; purified L1 in phosphate buffer pH 7.5 with the reducing agent DTT (20 mM); aggregates disassembled into soluble pentamers.

Consider “HPV-16 L1 capsid protein lacking the first twenty-nine N-terminal amino acids after the start codon (from UniProt P03101 1-505) (natural protein)”, for which the stoichiometry N was determined as 5.

A word on the stoichiometry N: it is a count of units in the complex or per binding partner.
